Data on one molecule can be found in publication PMC7115876 (Nature, 2020).

This assay concerns the target human β-arrestin 1 (L68C, R169E) (human, UniProt P49407 2-418, L68C | R169E). The assay can be described thus: cryo-EM structure.

Chain of human β-arrestin 1 (L68C, R169E) (P49407 2-418 L68C/R169E): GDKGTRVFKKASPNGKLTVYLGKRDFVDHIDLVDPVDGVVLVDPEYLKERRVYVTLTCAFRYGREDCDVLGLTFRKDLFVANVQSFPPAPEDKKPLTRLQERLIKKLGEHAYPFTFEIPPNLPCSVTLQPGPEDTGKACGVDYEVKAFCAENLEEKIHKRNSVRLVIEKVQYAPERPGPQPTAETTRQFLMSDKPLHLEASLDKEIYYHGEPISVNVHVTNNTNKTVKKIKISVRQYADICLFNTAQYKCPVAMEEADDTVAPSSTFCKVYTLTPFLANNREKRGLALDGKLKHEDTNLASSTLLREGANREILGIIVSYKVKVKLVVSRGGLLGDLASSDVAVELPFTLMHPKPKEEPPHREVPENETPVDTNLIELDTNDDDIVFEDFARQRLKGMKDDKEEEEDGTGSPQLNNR

B1: β1AR6P (turkey β1AR construct β83 ligated by sortase A to the phosphopeptide V2R6P) (receptor)
chain: not shown
modifications: six phosphoresidues in the V2R6P part: GGGDE[pS]A[pT][pT]A[pS][pS][pS]LAKDTSS
Take B1: the binding result is reported as “binds”.
